Reference: doi:10.1101/2022.03.08.483475 (bioRxiv, 2022)
Where two headings read alike, the source gives them in different places.

B1: MukB (wild type) (natural protein, E. coli, UniProt P22523 1-1486, looked up)
chain: MIERGKFRSLTLINWNGFFARTFDLDELVTTLSGGNGAGKSTTMAAFVTALIPDLTLLHFRNTTEAGATSGSRDKGLHGKLKAGVCYSMLDTINSRHQRVVVGVRLQQVAGRDRKVDIKPFAIQGLPMSVQPTQLVTETLNERQARVLPLNELKDKLEAMEGVQFKQFNSITDYHSLMFDLGIIARRLRSASDRSKFYRLIEASLYGGISSAITRSLRDYLLPENSGVRKAFQDMEAALRENRMTLEAIRVTQSDRDLFKHLISEATNYVAADYMRHANERRVHLDKALEFRRELHTSRQQLAAEQYKHVDMARELAEHNGAEGDLEADYQAASDHLNLVQTALRQQEKIERYEADLDELQIRLEEQNEVVAEAIERQQENEARAEAAELEVDELKSQLADYQQALDVQQTRAIQYNQAIAALNRAKELCHLPDLTADCAAEWLETFQAKELEATEKMLSLEQKMSMAQTAHSQFEQAYQLVVAINGPLARNEAWDVARELLREGVDQRHLAEQVQPLRMRLSELEQRLREQQEAERLLADFCKRQGKNFDIDELEALHQELEARIASLSDSVSNAREERMALRQEQEQLQSRIQSLMQRAPVWLAAQNSLNQLSEQCGEEFTSSQDVTEYLQQLLEREREAIVERDEVGARKNAVDEEIERLSQPGGSEDQRLNALAERFGGVLLSEIYDDVSLEDAPYFSALYGPSRHAIVVPDLSQVTEHLEGLTDCPEDLYLIEGDPQSFDDSVFSVDELEKAVVVKIADRQWRYSRFPEVPLFGRAARESRIESLHAEREVLSERFATLSFDVQKTQRLHQAFSRFIGSHLAVAFESDPEAEIRQLNSRRVELERALSNHENDNQQQRIQFEQAKEGVTALNRILPRLNLLADDSLADRVDEIRERLDEAQEAARFVQQFGNQLAKLEPIVSVLQSDPEQFEQLKEDYAYSQQMQRDARQQAFALTEVVQRRAHFSYSDSAEMLSGNSDLNEKLRERLEQAEAERTRAREALRGHAAQLSQYNQVLASLKSSYDTKKELLNDLQRELQDIGVRADSGAEERARIRRDELHAQLSNNRSRRNQLEKALTFCEAEMDNLTRKLRKLERDYFEMREQVVTAKAGWCAVMRMVKDNGVERRLHRRELAYLSADDLRSMSDKALGALRLAVADNEHLRDVLRMSEDPKRPERKIQFFVAVYQHLRERIRQDIIRTDDPVEAIEQMEIELSRLTEELTSREQKLAISSRSVANIIRKTIQREQNRIRMLNQGLQNVSFGQVNSVRLNVNVRETHAMLLDVLSEQHEQHQDLFNSNRLTFSEALAKLYQRLNPQIDMGQRTPQTIGEELLDYRNYLEMEVEVNRGSDGWLRAESGALSTGEAIGTGMSILVMVVQSWEDESRRLRGKDISPCRLLFLDEAARLDARSIATLFELCERLQMQLIIAAPENISPEKGTTYKLVRKVFQNTEHVHVVGLRGFAPQLPETLPGTDEAPSQAS

Key:
cross-linking = biological target: the molecule itself; experiment: cross-linking
MukB (wild type) [1] = biological target: B1; experiment: cross-linking
MukB (wild type) [2] = biological target: B1; experiment: co-purification, SDS-PAGE with Coomassie staining
MukB (wild type) [3] = biological target: B1; experiment: cross-linking; remark: listed apart in the source

B1: binds (cross-linking).

B2: ParC subunit of topoisomerase IV (natural protein, E. coli, UniProt P0AFI2 1-752, looked up)
chain: MSDMAERLALHEFTENAYLNYSMYVIMDRALPFIGDGLKPVQRRIVYAMSELGLNASAKFKKSARTVGDVLGKYHPHGDSACYEAMVLMAQPFSYRYPLVDGQGNWGAPDDPKSFAAMRYTESRLSKYSELLLSELGQGTADWVPNFDGTLQEPKMLPARLPNILLNGTTGIAVGMATDIPPHNLREVAQAAIALIDQPKTTLDQLLDIVQGPDYPTEAEIITSRAEIRKIYENGRGSVRMRAVWKKEDGAVVISALPHQVSGARVLEQIAAQMRNKKLPMVDDLRDESDHENPTRLVIVPRSNRVDMDQVMNHLFATTDLEKSYRINLNMIGLDGRPAVKNLLEILSEWLVFRRDTVRRRLNYRLEKVLKRLHILEGLLVAFLNIDEVIEIIRNEDEPKPALMSRFGLTETQAEAILELKLRHLAKLEEMKIRGEQSELEKERDQLQGILASERKMNNLLKKELQADAQAYGDDRRSPLQEREEAKAMSEHDMLPSEPVTIVLSQMGWVRSAKGHDIDAPGLNYKAGDSFKAAVKGKSNQPVVFVDSTGRSYAIDPITLPSARGQGEPLTGKLTLPPGATVDHMLMESDDQKLLMASDAGYGFVCTFNDLVARNRAGKALITLPENAHVMPPVVIEDASDMLLAITQAGRMLMFPVSDLPQLSKGKGNKIINIPSAEAARGEDGLAQLYVLPPQSTLTIHVGKRKIKLRPEELQKVTGERGRRGTLMRGLQRIDRVEIDSPRRASSGDSEE
B2: binds (MukB (wild type) [1]).

B3: acyl carrier protein (AcpP) found in MukB preparations (natural protein, E. coli, UniProt P0A6A8 1-78, looked up)
chain: MSTIEERVKKIIGEQLGVKQEEVTNNASFVEDLGADSLDTVELVMALEEEFDTEIPDEEAEKITTVQAAIDYINGHQA
In the case of B3, the “stoichiometry N” value (MukB (wild type) [2]) is reported as 1 AcpP:MukB.

B4: MukF (wild type) (natural protein, E. coli, UniProt P60293 1-440, looked up)
chain: MSEFSQTVPELVAWARKNDFSISLPVDRLSFLLAVATLNGERLDGEMSEGELVDAFRHVSDAFEQTSETIGVRANNAINDMVRQRLLNRFTSEQAEGNAIYRLTPLGIGITDYYIRQREFSTLRLSMQLSIVAGELKRAADAAEEGGDEFHWHRNVYAPLKYSVAEIFDSIDLTQRLMDEQQQQVKDDIAQLLNKDWRAAISSCELLLSETSGTLRELQDTLEAAGDKLQANLLRIQDATMTHDDLHFVDRLVFDLQSKLDRIISWGQQSIDLWIGYDRHVHKFIRTAIDMDKNRVFAQRLRQSVQTYFDEPWALTYANADRLLDMRDEEMALRDEEVTGELPEDLEYEEFNEIREQLAAIIEEQLAVYKTRQVPLDLGLVVREYLSQYPRARHFDVARIVIDQAVRLGVAQADFTGLPAKWQPINDYGAKVQAHVIDKY
B4: binds (MukB (wild type) [3]).
